Biological target: HCV NS5B RNA-dependent RNA polymerase (Hepatitis C virus (strain ), UniProt Q9WMX2 2421-3010)
Experiment: protein chip with QD fluorescence

Sequence of HCV NS5B RNA-dependent RNA polymerase (Q9WMX2 2421-3010): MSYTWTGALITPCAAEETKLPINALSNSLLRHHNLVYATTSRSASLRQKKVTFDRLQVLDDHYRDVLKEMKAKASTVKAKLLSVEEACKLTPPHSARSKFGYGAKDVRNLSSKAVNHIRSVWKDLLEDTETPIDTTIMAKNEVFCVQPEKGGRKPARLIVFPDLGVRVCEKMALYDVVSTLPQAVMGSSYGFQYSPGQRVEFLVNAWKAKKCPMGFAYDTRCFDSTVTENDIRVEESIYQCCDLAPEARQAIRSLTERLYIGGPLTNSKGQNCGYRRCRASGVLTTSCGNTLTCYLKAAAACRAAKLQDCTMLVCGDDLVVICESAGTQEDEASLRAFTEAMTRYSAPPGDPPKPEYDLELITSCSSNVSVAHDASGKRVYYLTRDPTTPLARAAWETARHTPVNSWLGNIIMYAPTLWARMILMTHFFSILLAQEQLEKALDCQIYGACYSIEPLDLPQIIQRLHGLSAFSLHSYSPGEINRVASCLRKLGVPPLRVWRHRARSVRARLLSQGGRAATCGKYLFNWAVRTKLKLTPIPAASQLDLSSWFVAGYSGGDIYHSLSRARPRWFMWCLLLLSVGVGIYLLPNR

B1: NS5Bmut RNA oligonucleotide (ssRNA)
RNA: CCCCACAUUCUCACCCCCUC
modifications: 5'-amine
Does B1 bind?
Result: no binding
